Experiment [1] addresses FLAG-Atg16L1 E226R, Q8C0J2-3. The experiment in a line: GFP-Trap co-immunoprecipitation from mixed lysates, immunoblot quantification. The note with it: parent: est. 2.5; read off a plot. Background: Immunoblotting shows a protein as a band on a membrane.
For experiment [2], the target named is FLAG-Atg16L1 E226R E230R (ERER), Q8C0J2-3. Described as above. The note with it: parent: est. 2.5; read off a plot.
Experiment [3] addresses FLAG-Atg16L1 E230R, Q8C0J2-3. Described as above. To be noted: parent: est. 2.5; read off a plot.
The target in experiment [4] is endogenous Atg16L1 (HEK293A) (UniProt Q676U5). The experiment in a line: GFP-Trap, immunoblot quantification. The note with it: parent: est. 0.49; read off a plot.
Chain of endogenous Atg16L1 (HEK293A) (Q676U5 whole entry): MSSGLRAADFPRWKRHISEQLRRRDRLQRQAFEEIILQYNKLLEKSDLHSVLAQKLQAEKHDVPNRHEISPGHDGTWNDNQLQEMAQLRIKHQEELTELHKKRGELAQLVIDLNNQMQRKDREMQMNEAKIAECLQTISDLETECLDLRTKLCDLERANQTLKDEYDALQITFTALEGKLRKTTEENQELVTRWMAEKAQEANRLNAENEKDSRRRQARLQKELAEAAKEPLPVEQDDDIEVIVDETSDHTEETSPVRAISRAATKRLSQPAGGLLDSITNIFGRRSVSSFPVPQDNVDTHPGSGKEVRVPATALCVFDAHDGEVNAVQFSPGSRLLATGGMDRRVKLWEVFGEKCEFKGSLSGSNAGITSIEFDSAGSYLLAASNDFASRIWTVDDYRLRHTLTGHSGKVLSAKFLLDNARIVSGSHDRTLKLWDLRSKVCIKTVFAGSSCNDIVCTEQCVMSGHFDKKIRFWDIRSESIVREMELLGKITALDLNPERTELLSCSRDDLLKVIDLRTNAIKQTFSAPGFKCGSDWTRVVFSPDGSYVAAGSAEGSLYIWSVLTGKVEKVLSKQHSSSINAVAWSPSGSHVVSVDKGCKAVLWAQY

Chain of FLAG-Atg16L1 E230R, Q8C0J2-3 (Q8C0J2 other isoform, or with tags, fused parts or gaps E230R | E230R): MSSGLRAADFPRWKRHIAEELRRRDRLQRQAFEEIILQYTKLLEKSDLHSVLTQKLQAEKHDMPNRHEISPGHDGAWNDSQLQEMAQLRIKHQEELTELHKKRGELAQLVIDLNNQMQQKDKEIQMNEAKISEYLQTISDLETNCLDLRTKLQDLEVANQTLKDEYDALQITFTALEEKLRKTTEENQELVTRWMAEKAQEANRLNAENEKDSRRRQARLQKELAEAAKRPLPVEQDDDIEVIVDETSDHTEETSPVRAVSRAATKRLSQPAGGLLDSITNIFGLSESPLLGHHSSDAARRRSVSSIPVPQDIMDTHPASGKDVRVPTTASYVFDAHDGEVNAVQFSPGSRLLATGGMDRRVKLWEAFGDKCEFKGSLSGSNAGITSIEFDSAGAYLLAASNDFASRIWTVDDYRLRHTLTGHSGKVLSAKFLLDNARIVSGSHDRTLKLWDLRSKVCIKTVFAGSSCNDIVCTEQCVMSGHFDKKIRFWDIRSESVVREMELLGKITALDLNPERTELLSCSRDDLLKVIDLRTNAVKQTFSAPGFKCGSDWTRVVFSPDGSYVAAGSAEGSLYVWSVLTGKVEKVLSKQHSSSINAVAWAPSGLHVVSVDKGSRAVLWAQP
Chain of FLAG-Atg16L1 E226R E230R (ERER), Q8C0J2-3 (Q8C0J2 other isoform, or with tags, fused parts or gaps E226R | E230R | E226R E230R): as the sequence (Q8C0J2 other isoform, or with tags, fused parts or gaps E230R | E230R) above, with E226R counted along it
Chain of FLAG-Atg16L1 E226R, Q8C0J2-3 (Q8C0J2 other isoform, or with tags, fused parts or gaps E226R | E226R): as the sequence (Q8C0J2 other isoform, or with tags, fused parts or gaps E230R | E230R) above, with E226R, R230E counted along it

For the substance m1; m3 WIPI2b:R108E; Atg16L1:E226R, the response in experiment [1] was 0.05.

Take “m1; m3 WIPI2b:R125E; Atg16L1:E226R; Atg16L1:E230R”: the response in experiment [2] came out at 0.23.

Consider m1; m3 WIPI2b:R108E; Atg16L1:E230R, for which, in experiment [3], the response is 0.87.

As to “m1; m3 WIPI2b:R108E; WIPI2b:R125E; Atg16L1:E230R”, the response in experiment [3] worked out at 0.05.

Take “m1; m3 WIPI2b:R108E; Atg16L1:E226R; Atg16L1:E230R”: in experiment [2], the response was 0.13.

On to GFP-WIPI2b FRRG to FTTG, for which the response in experiment [4] turned out to be 0.79.

“m1; m3 WIPI2b:R108E; WIPI2b:R125E; Atg16L1:E226R”: the response in experiment [1] came to 0.04.

For m1; m3 WIPI2b:R125E; Atg16L1:E230R, the response in experiment [3] was determined as 0.04.

As to “m1; m3 WIPI2b:R108E; WIPI2b:R125E; Atg16L1:E226R; Atg16L1:E230R”, the response in experiment [2] worked out at 0.04.

Turning to m1; m3 WIPI2b:R125E; Atg16L1:E226R, in experiment [1], the response was found to be 0.05.
